Consider two molecules from patent US20220064218A1 (Bicycle, published 2022).

In general, Ki refers to the dissociation constant of the complex between target and ligand, obtained from inhibition or displacement. Low readings indicate higher affinity, high ones lower affinity.

*1 amine or outer side, *2 acyl side, *3 side chain or, on linkers, in order; H or OH if unused. Bridges are numbered along the chain shown (N, C = ends). Where no end group is shown, it is not given here. TATA = O=C(CC[*:1])N1CN(C(=O)CC[*:2])CN(C(=O)CC[*:3])C1

The assay concerns the target T1, human CD38 (human, UniProt P28907 43-300, limits assumed).
T1 construct: also called hCD38
T1 sequence (looked up): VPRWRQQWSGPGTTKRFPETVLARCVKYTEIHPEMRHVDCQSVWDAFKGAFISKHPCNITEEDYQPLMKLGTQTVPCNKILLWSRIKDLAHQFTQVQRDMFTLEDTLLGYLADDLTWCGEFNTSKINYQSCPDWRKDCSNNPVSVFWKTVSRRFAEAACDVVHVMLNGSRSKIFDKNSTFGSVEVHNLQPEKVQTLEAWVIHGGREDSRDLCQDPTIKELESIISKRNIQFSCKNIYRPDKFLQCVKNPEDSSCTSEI
In words: fluorescence polarisation competition with the labelled tracer peptide. (In fluorescence polarisation assays a small probe gives low polarisation when free and higher when bound to something large.)

B1: 66-50-16-T01-N001 (peptide)
peptide: ACYWNPFTACWSCEND
modifications: linker 2-10-13 via TATA (inferred)
notes: Synthetic bicyclic peptide cyclised with TATA
For B1, the inhibition constant Ki worked out at 90 nM.

B2: 66-50-19-T02-N001 (peptide)
peptide: ACYWNPFTACYSCTEN
modifications: linker 2-10-13 via TATA (inferred)
notes: Synthetic bicyclic peptide cyclised with TATA; also called 66-50-19-T002-N001
On to B2, for which the affinity, expressed as Ki, was 316 nM.
